Experimental findings from paper PMC10164552, “PBRM1 bromodomains associate with RNA to facilitate chromatin association” are described below.

The target in data set [1] is T1, PBRM1 BD4 (UniProt Q86U86 496-637). The data set is described as follows: NMR titration (1H-15N HSQC); NMR: 0.1 mM 15N-BD, 50 mM K phosphate pH 7.0, 50 mM KCl, 2 mM DTT, 2 mM EDTA, 7% D2O, 25 C; EMSA: 50 mM K phosphate pH 7.0, 10 mM KCl, 2 mM DTT, 2 mM EDTA, 5% sucrose, on ice 1 h, gel at 4 C. The conditions noted are these: protein: recombinant, tags: His tag, TEV-cleaved.
T1 sequence (Q86U86 496-637): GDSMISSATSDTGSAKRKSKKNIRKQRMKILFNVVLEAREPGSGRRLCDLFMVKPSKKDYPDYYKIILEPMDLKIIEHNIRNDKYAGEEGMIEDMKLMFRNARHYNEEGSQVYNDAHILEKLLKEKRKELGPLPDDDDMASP

Data set [2] deals with T2, PBRM1 BD2 (UniProt Q86U86 178-291). The data set is described as above. The note with it: protein: recombinant, tags: His tag, TEV-cleaved.
T2 sequence (Q86U86 178-291): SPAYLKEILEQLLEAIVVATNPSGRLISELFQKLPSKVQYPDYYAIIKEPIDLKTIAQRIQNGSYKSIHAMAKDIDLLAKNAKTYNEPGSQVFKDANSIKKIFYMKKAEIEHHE
In data set [3] the target is T1, PBRM1 BD4. The data set is described as follows: NMR titration (1H-15N HSQC); Kd only in figure, stated similar to other dsRNAs; NMR: 0.1 mM 15N-BD, 50 mM K phosphate pH 7.0, 50 mM KCl, 2 mM DTT, 2 mM EDTA, 7% D2O, 25 C; EMSA: 50 mM K phosphate pH 7.0, 10 mM KCl, 2 mM DTT, 2 mM EDTA, 5% sucrose, on ice 1 h, gel at 4 C. The note with it: protein: recombinant, tags: His tag, TEV-cleaved. A general note: In EMSA bound probe runs differently from free probe, usually more slowly.

Data set [4] concerns the target T2, PBRM1 BD2. Described as above. The conditions noted are these: protein: recombinant, tags: His tag, TEV-cleaved, hairpin.
In another data set the target is PBRM1 BD4 KRK_AAA (UniProt Q86U86 496-637, K511A;R512A;K513A). The data set is described as follows: NMR titration (1H-15N HSQC); NMR: 0.1 mM 15N-BD, 50 mM K phosphate pH 7.0, 50 mM KCl, 2 mM DTT, 2 mM EDTA, 7% D2O, 25 C; EMSA: 50 mM K phosphate pH 7.0, 10 mM KCl, 2 mM DTT, 2 mM EDTA, 5% sucrose, on ice 1 h, gel at 4 C. The note with it: protein: recombinant; tags: His tag, TEV-cleaved; hairpin, UUCG loop.
Chain of PBRM1 BD4 KRK_AAA (Q86U86 496-637 K511A/R512A/K513A): as the sequence (Q86U86 496-637) above, with K16A, R17A, K18A counted along it

Another data set deals with PBRM1 BD2 SKY_AAA (UniProt Q86U86 178-291, S275A;K277A;Y281A). The data set is described as above. The note with it: protein: recombinant; tags: His tag, TEV-cleaved; hairpin, UUCG loop.
Chain of PBRM1 BD2 SKY_AAA (Q86U86 178-291 S275A/K277A/Y281A): as the sequence (Q86U86 178-291) above, with S98A, K100A, Y104A counted along it

For orientation: Kd means a measure of binding affinity in units of concentration.

For CGTAGACAGCT (ssDNA) [ssDNA], the Kd with PBRM1 BD4 [1] came to 2970 ± 140 µM; with PBRM1 BD2 [2], 130 ± 30 µM.

B1: dsDNA 11 bp (dsDNA)
DNA 1: CGTAGACAGCT
DNA 2: AGCTGTCTACG
As to B1, the Kd in the data set with PBRM1 BD4 [1] (blunt) came to 500 ± 270 µM; with PBRM1 BD2 [2] (blunt), 910 ± 380 µM.
As to GGCAUCGUGCAUCAGAAUGGCACGAUGCC (structured_RNA) [dsRNAIII stem-loop], the binding result with PBRM1 BD4 [3] (hairpin) and with PBRM1 BD2 [4] was “binds” throughout.
Consider UUUUUUUUUUUUU (ssRNA) [ssRNAI poly-U 13 nt], for which the Kd in the data set with PBRM1 BD4 [1] turned out to be 320 ± 140 µM; in the data set with PBRM1 BD2 [2], 350 ± 80 µM.
Regarding GCGUAGACAGCUGUUCGCAGCUGUCUACGC (structured_RNA) [dsRNAI stem-loop 30 nt], the Kd with PBRM1 BD4 [1] (hairpin, UUCG loop) turned out to be 120 ± 20 µM; with PBRM1 BD4 KRK_AAA it was 1020 ± 40 µM; with PBRM1 BD2 SKY_AAA, 200 ± 70 µM; with PBRM1 BD2 [2] (hairpin, UUCG loop), 25 ± 8 µM.

B2: dsRNAIV (no loop) (dsRNA)
RNA 1: GGCAUCGUGC
RNA 2: GCACGAUGCC
With B2, the binding result in the data set with PBRM1 BD4 [3] (blunt) is “binds”.
On to GGCAUCGUGCUUCGGCACGAUGCC (structured_RNA) [dsRNAII stem-loop], for which the binding result with PBRM1 BD4 [3] (hairpin, UUCG loop) is “binds”; with PBRM1 BD2 [4] (UUCG loop), “binds”.
